B1: ANKRD40 (parent)
chain: YQELLRVCCCELGVNPDQVEKIRK

Variants of: B1
Assay: protein stability index of a GFP-peptide fusion (GPS, HEK-293T) (PSI 1-6); higher = more stable
Settings: c terminus: a fixed tail appended
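Also: lentivirally expressed fusions sorted by FACS into six bins by GFP to DsRed ratio, PSI derived from sequencing read proportions per bin multiplied by bin number.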

Protein stability index of substitutions, site by site:
E3: S 2.26 | Q 1.59 | R 1.21 | Y 1.66 | I 1.57 | M 1.64 | A 1.52 | D 1.59 | F 1.76 | P 2.21 | H 2.01 | N 2.09 | K 1.96 | T 2.13
C8: W 2.02 | I 2.38 | R 2.21 | M 2.09 | T 3.53 | F 1.44 | D 3.81 | A 3.16 | L 2.24 | N 3.48 | P 2.12 | K 2.19 | Q 3.52 | H 2.84 | S 3.33 | G 2.8 | E 3.56 | Y 2.09
E11: D 1.89 | I 1.49 | M 2.03 | C 2.62 | P 1.94 | W 1 | V 1.56 | F 2.19 | Y 1.27 | N 1.76 | H 1.79 | S 1.22 | G 1.86 | L 2 | T 1.98 | R 1.32 | A 1.32 | K 2.89
V19: Y 2.26 | R 1.6 | P 2.19 | F 2.19 | S 1.66 | D 1.66 | M 2.37 | A 1.79 | G 1.64 | C 2.1 | K 2.68 | N 1.34 | W 1.75 | L 2.2 | E 2.51 | H 2.27 | Q 2.29 | I 2.25
L4: C 2.15 | R 1.79 | H 3 | Q 2.42 | N 2.55 | I 2.58 | E 3.05 | T 2.53 | S 2.27 | M 1.82 | K 2.94 | D 3.98 | A 2.63 | Y 2.38
Y1: I 1.78 | L 1.51 | P 1.6 | M 2.29 | S 2.65 | N 3.55 | V 1.15 | R 2.16 | Q 3.28 | T 2.53 | W 1.29 | H 3.27 | K 1.96
Q18: H 1.48 | M 2.02 | I 1.89 | E 2.13 | Y 1.19 | T 2.16 | F 1.01 | D 2.73 | S 2.08 | P 1.4 | L 1.67 | A 1.32 | N 2.32 | C 1.52 | G 2.02 | V 1.8
L5: Q 3.04 | D 3.26 | M 2.41 | A 2.5 | T 1.91 | C 3.06 | K 2.37 | P 1.75 | G 2.05 | I 1.77 | N 1.99 | H 2.18
C9: W 2.23 | R 2.31 | H 2.15 | F 3.38 | D 3.15 | K 2.23 | Q 2.27 | V 1.82 | N 2.15 | E 2.35 | I 1.06 | A 2.61 | G 3.22 | T 2.23 | Y 2.66 | M 1.81 | S 2.14 | P 2.59 | L 1.55
V7: F 1.61 | Y 1.79 | P 2.5 | K 2.23 | R 1.41 | H 2.59 | G 1.48 | N 1.96 | A 2.15 | Q 1.97 | E 2.28 | L 1.46 | C 2.1 | I 2.03 | D 2.53
N15: T 3.74 | I 1.37 | F 1.45 | L 1.39 | C 1.63 | A 1.96 | D 2.08 | G 1.26 | R 2.21 | H 2.75 | K 2.08 | E 2.27 | Y 1.78 | M 2.21 | S 2.1 | P 2.8 | Q 1.62
G13: I 1.78 | Q 1.57 | P 2.06 | E 2.42 | C 1.63 | M 2.01 | K 1.62 | L 1.62 | W 2.84 | A 2.08 | N 1.78 | D 2.19 | V 1.71 | S 3.16 | R 1.66 | Y 1.05 | F 1.55 | H 1.79 | T 2.13
P16: M 1.5 | A 1.81 | C 2.52 | R 2.41 | D 2.86 | E 2.14 | F 1.14 | H 1.43 | N 2.4 | T 1.29 | K 2.26 | Q 2.5 | L 2.11 | Y 1.99 | I 1.52 | S 2.06
C10: W 1.81 | L 1.86 | T 2.04 | G 2.22 | H 2.63 | V 2.1 | F 1.68 | S 2.24 | R 2.35 | Q 2.92 | I 1.63 | P 2.31 | M 2.08
K21: G 1.82 | V 2.54 | H 1.49 | F 2.97 | A 2.02 | I 1.81 | L 1.05 | P 1 | E 2.4 | N 1.85 | C 1.82 | D 1.66 | R 2.12
E20: T 1.47 | R 1.96 | A 1.97 | D 2.94 | C 1.56 | L 2.4 | I 3.43 | Q 1.75 | S 1.31 | V 1.99 | P 1.66 | N 1.99 | K 1.96 | H 1.26 | M 1.85
L12: K 2.49 | V 1.64 | F 2.21 | C 2.03 | E 2.75 | W 1.65 | I 2.21 | Q 2.81 | P 2.55 | D 2.64 | H 1.88 | S 2.15 | M 2.05 | G 2.31 | Y 2.24 | R 1.7 | A 1.78 | N 2.86
Q2: P 2.08 | H 1.77 | G 2.08 | N 2.52 | D 2.47 | M 1.76 | A 1.94 | C 1.64 | W 1.67 | R 2.58 | K 2.5 | F 1.44 | S 1.57 | I 1.73 | L 1.51 | E 2.98 | Y 1.86
V14: H 2.22 | N 1.85 | S 2.32 | T 1.99 | E 2.72 | A 1.99 | Y 2.13 | L 2.18 | P 2.02 | M 2.07 | R 1.5 | F 2.27 | D 2.88 | C 2.08 | Q 1.72 | I 1.61
R6: H 2.11 | C 1.92 | G 2.23 | I 1.49 | F 1.78 | D 2.56 | Y 2.18 | P 2.02 | L 1.74 | N 2.26 | A 2.02 | Q 2.26 | T 1.54 | K 1.91 | W 1.58 | M 1.73 | S 2.03 | E 2.36
D17: Y 2.01 | T 2.42 | F 1.87 | W 2.12 | Q 2.94 | L 1.59 | M 1.56 | I 1.69 | N 2.11 | R 2.04 | G 2.42 | V 2.73 | S 2.4 | K 1.69 | C 2.01

— the supplement of paper PMC10567573
